Results published in paper doi:10.1101/2025.01.24.634737.

What was measured:
[1] = biological target: microtubules grown from purified bovine brain tubulin (bovine) (UniProt Q6B856); experiment: optical trap rupture force assay; untreated purified kinetochores on anti-penta-His beads (via Dsn1-6His-3M3DK), attached to the growing tips of coverslip-anchored microtubules; force ramp 0.25 pN/s until detachment; BRB80, 1 mM GTP, 23 °C
[2] = biological target: microtubules grown from purified bovine brain tubulin (bovine) (UniProt Q6B856); experiment: optical trap rupture force assay; kinetochores purified in the presence of benzonase, on anti-penta-His beads (via Dsn1-6His-3M3DK), attached to the growing tips of coverslip-anchored microtubules; force ramp 0.25 pN/s until detachment; BRB80, 1 mM GTP, 23 °C

Sequence of UniProt Q6B856 (Q6B856 whole entry, looked up): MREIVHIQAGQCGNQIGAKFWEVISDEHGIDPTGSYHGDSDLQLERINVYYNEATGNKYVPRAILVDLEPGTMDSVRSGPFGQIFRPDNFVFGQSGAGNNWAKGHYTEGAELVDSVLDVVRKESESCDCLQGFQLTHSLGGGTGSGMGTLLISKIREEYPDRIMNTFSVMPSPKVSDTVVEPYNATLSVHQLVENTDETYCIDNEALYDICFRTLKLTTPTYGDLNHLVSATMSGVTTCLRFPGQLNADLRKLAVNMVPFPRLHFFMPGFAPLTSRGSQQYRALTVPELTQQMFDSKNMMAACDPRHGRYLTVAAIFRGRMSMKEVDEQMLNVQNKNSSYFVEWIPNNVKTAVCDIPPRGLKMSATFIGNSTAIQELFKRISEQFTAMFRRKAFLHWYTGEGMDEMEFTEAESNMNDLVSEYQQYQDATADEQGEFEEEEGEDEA

| median rupture force [1] | median rupture force [2] [pN] | Substance |
| --- | --- | --- |
| 7.2 |  | native S. cerevisiae kinetochore particles purified via Dsn1-6xHis-3xM3DK (from UniProt P40568 1-576) (complex) |
| 7.5 pN | 6.4 | native K. marxianus kinetochore particles purified via Dsn1-6His-3M3DK (from UniProt A0ABX6F0Z3 1-547) (complex) |
